Targets include HLA-A*03:01; HLA-A*11:01; HLA-A*31:01; HLA-A*33:01; HLA-A*68:01.
Holding throughout (assay): IEDB peptide-MHC binding, purified MHC/competitive/radioactivity; filed as Kd, often an IC50 or EC50 that approximates it; ≥ and ≤ were set here for values at or beyond the usual limits of such assays
Setting [1] is: source organism: SARS coronavirus Tor2.
The mark [2] stands for this setting: source organism: Lymphocytic choriomeningitis virus (strain Armstrong).
The mark [3] stands for this setting: source organism: Dengue virus 4 Philippines/H241/1956.
[4] abbreviates: source organism: Dengue virus 1 Brazil/97-11/1997.
Setting [5] is: source organism: Vaccinia virus WR.

One may read the Kd as a measure of binding affinity in units of concentration. For the sequence SVKGLTPSK, the Kd with HLA-A*03:01 (setting [1]) was 7.56 nM; with HLA-A*11:01 (setting [1]), 13.2 nM; with HLA-A*31:01 (setting [1]), 171 nM; with HLA-A*33:01 (setting [1]) it was 9270 nM; with HLA-A*68:01 (setting [1]), 180 nM.

As for SYQYLIIQNR, the Kd was 9780 nM with HLA-A*03:01 (setting [2]); ≥ 69700 nM with HLA-A*11:01 (setting [2]); 0.953 nM in the experiment with HLA-A*31:01 (setting [2]); 54.3 nM with HLA-A*33:01 (setting [2]); 1690 nM in the experiment with HLA-A*68:01 (setting [2]).

Consider MGYWIESSK, for which the Kd with HLA-A*03:01 (setting [3]) came to 83.9 nM.

For VMAFIAFLR, the Kd with HLA-A*03:01 (setting [4]) stood at 38.5 nM; with HLA-A*11:01 (setting [4]), 171 nM; in the experiment with HLA-A*31:01 (setting [4]) it was 1.33 nM; in the experiment with HLA-A*33:01 (setting [4]) it was 4.68 nM; in the experiment with HLA-A*68:01 (setting [4]), 4.51 nM.

In the case of VTTIMFLAR, the Kd was found to be 329 nM with HLA-A*03:01 (setting [1]); 24.6 nM in the experiment with HLA-A*11:01 (setting [1]); 45.4 nM with HLA-A*31:01 (setting [1]); 167 nM with HLA-A*33:01 (setting [1]); 84.6 nM with HLA-A*68:01 (setting [1]).

For the sequence VTLAILTALR, the Kd in the experiment with HLA-A*03:01 (setting [1]) is 218 nM; with HLA-A*11:01 (setting [1]), 149 nM; with HLA-A*31:01 (setting [1]) it was 13.4 nM; with HLA-A*33:01 (setting [1]), 310 nM; with HLA-A*68:01 (setting [1]), 14.1 nM.

Turning to DVSMMSMYGK, the Kd was 149 nM with HLA-A*03:01 (setting [5]); 1.28 nM with HLA-A*11:01 (setting [5]); 231 nM with HLA-A*31:01 (setting [5]); 584 nM with HLA-A*33:01 (setting [5]); 1.21 nM with HLA-A*68:01 (setting [5]).

In the case of TLISLNSMY, the equilibrium dissociation constant (Kd) with HLA-A*03:01 (setting [5]) amounted to 155 nM; in the experiment with HLA-A*11:01 (setting [5]), 282 nM; in the experiment with HLA-A*31:01 (setting [5]) it was 8060 nM; in the experiment with HLA-A*33:01 (setting [5]), 15000 nM; with HLA-A*68:01 (setting [5]), 46.8 nM.

Turning to IMLEGETKLY, the Kd was 1610 nM in the experiment with HLA-A*03:01 (setting [5]); 5110 nM with HLA-A*11:01 (setting [5]); ≥ 55800 nM in the experiment with HLA-A*31:01 (setting [5]); ≥ 41100 nM with HLA-A*33:01 (setting [5]); 1010 nM with HLA-A*68:01 (setting [5]).

With QSYKETVHK, the Kd with HLA-A*03:01 (setting [5]) was 21.7 nM; with HLA-A*11:01 (setting [5]), 43.4 nM; in the experiment with HLA-A*31:01 (setting [5]), 5550 nM; in the experiment with HLA-A*33:01 (setting [5]), ≥ 77700 nM; in the experiment with HLA-A*68:01 (setting [5]) it was 37.6 nM.

Consider PSIFLIITK, for which the Kd was found to be 166 nM in the experiment with HLA-A*03:01 (setting [5]); 36 nM in the experiment with HLA-A*11:01 (setting [5]); 9350 nM with HLA-A*31:01 (setting [5]); 10900 nM with HLA-A*33:01 (setting [5]); 4130 nM with HLA-A*68:01 (setting [5]).

QIFNEDTSY: the dissociation constant (Kd) with HLA-A*03:01 (setting [5]) is 3610 nM; in the experiment with HLA-A*11:01 (setting [5]), 73.2 nM; in the experiment with HLA-A*31:01 (setting [5]) it was ≥ 77900 nM; in the experiment with HLA-A*33:01 (setting [5]), ≥ 77700 nM; in the experiment with HLA-A*68:01 (setting [5]), 6330 nM.

Consider FLLRHYYNK, for which the Kd in the experiment with HLA-A*03:01 (setting [5]) is 7.31 nM; in the experiment with HLA-A*11:01 (setting [5]), 27.1 nM; with HLA-A*31:01 (setting [5]) it was 76.4 nM; with HLA-A*33:01 (setting [5]), 2050 nM; with HLA-A*68:01 (setting [5]), 1340 nM.

For LFQLCTFTK, the Kd was found to be 438 nM with HLA-A*03:01 (setting [1]); 191 nM in the experiment with HLA-A*11:01 (setting [1]); 574 nM in the experiment with HLA-A*31:01 (setting [1]); 875 nM with HLA-A*33:01 (setting [1]); 579 nM in the experiment with HLA-A*68:01 (setting [1]).

ILMKTANNY: the Kd with HLA-A*03:01 (setting [5]) was 325 nM; with HLA-A*11:01 (setting [5]) it was 287 nM; in the experiment with HLA-A*31:01 (setting [5]), ≥ 77900 nM; with HLA-A*33:01 (setting [5]), ≥ 77700 nM; in the experiment with HLA-A*68:01 (setting [5]) it was ≥ 20900 nM.

Turning to YSKLTKDRK, the Kd with HLA-A*03:01 (setting [5]) is ≥ 78000 nM; in the experiment with HLA-A*11:01 (setting [5]) it was 4850 nM; in the experiment with HLA-A*31:01 (setting [5]) it was 4320 nM; in the experiment with HLA-A*33:01 (setting [5]), ≥ 23900 nM; with HLA-A*68:01 (setting [5]), 52.3 nM.

With KSIHLTKTDK, the Kd with HLA-A*03:01 (setting [5]) is 107 nM; in the experiment with HLA-A*11:01 (setting [5]), 19.8 nM; with HLA-A*31:01 (setting [5]), 313 nM; with HLA-A*33:01 (setting [5]) it was ≥ 70000 nM; in the experiment with HLA-A*68:01 (setting [5]), 416 nM.

On to YANCSSISIK, for which the Kd amounted to 452 nM in the experiment with HLA-A*03:01 (setting [5]); 115 nM with HLA-A*11:01 (setting [5]); 4310 nM in the experiment with HLA-A*31:01 (setting [5]); 18100 nM in the experiment with HLA-A*33:01 (setting [5]); 51.7 nM with HLA-A*68:01 (setting [5]).

For ASMGFKVTTR, the Kd is 14 nM with HLA-A*03:01 (setting [5]); 0.174 nM with HLA-A*11:01 (setting [5]); 0.416 nM with HLA-A*31:01 (setting [5]); 532 nM with HLA-A*33:01 (setting [5]); 15.4 nM with HLA-A*68:01 (setting [5]).

Regarding RLRMDKLQLK, the Kd with HLA-A*03:01 (source organism: Dengue virus 2 Jamaica/1409/1983) is 7.91 nM.

In the case of ILGGVLHTK, the Kd in the experiment with HLA-A*03:01 (setting [5]) came to 1.92 nM; in the experiment with HLA-A*11:01 (setting [5]), 19.3 nM; with HLA-A*31:01 (setting [5]) it was 1380 nM; in the experiment with HLA-A*33:01 (setting [5]), 6160 nM; with HLA-A*68:01 (setting [5]), 558 nM.

Consider HVQTKPGLFK, for which the Kd with HLA-A*03:01 (setting [3]) amounted to 8.44 nM; with HLA-A*11:01 (setting [3]), 389 nM.

Turning to FLIVSLCPTK, the Kd with HLA-A*03:01 (setting [5]) is 219 nM; with HLA-A*11:01 (setting [5]) it was 2.2 nM; with HLA-A*31:01 (setting [5]), ≥ 25600 nM; in the experiment with HLA-A*33:01 (setting [5]), 15100 nM; with HLA-A*68:01 (setting [5]) it was 977 nM.

LMRFITAETH: the Kd in the experiment with HLA-A*31:01 (setting [2]) was 411 nM; with HLA-A*33:01 (setting [2]), 5450 nM; with HLA-A*68:01 (setting [2]), 3540 nM.

(Values after the Immune Epitope Database (IEDB).)
